Test results: PMC10889901, “Deciphering the structure of a multi-drug resistant Acinetobacter baumannii short-chain dehydrogenase reductase” (PLOS ONE, 2024)

Biological target: the molecule itself
Test: crystal structure; hanging-drop vapour diffusion, 23°C, 0.2 M lithium sulphate monohydrate, 0.1 M TRIS hydrochloride pH 8.5, 30% PEG 8,000; single protomer in the asymmetric unit, tetramer found by PISA analysis of the crystal

B1: Acinetobacter baumannii short-chain dehydrogenase reductase (enzyme)
chain: SNAMKLDLQNKIAVVSGSTSGIGLGIAKGLASAGATVVVVGRKQAGVDEAIAHIRQSVPEASLRGVDADLTTEQGAAALFAAEPKADILVNNLGIFNDEDFFSVPDEEWMRFYQVNVLSGVRLARHYAPSMVEQGWGRIIFISSESGVAIPGDMINYGVTKSANLAVSHGLAKRLAGTGVTVNAVLPGPTFTDGLENMLADAAAKAGRSTRDQADEFVKVLRPSSIIQRAAEVDEVANMVVYIASPLSSATSGAALRVDGGVVDTLV
notes: residues of the vector printed after the TEV cleavage site (ENLYFQ/SNA), left on the protein after the tag is removed; short-chain dehydrogenase reductase (SDR) of Acinetobacter baumannii; Vector pMCSG21; one protomer in the asymmetric unit, the tetramer comes from crystal symmetry (PISA); also called SDR; SDR enzyme; source: E. coli BL21(DE3) pLysS, purified (HisTrap, TEV cleavage, Superdex …)
- stoichiometry N: 4
